In paper PMC4228979, “Conserved cis-regulatory modules in promoters of genes encoding wheat high-molecular-weight glutenin subunits”:

B1: GLM2 (-626) (dsDNA)
DNA 1: ATAGATATTGTGAGTCAGCATGGAT
DNA 2: ATCCATGCTGACTCACAATATCTAT
B2: mutated G-box (dsDNA)
DNA 1: GCCCATTCTCTGGCTTTAGCAGACC
DNA 2: GGTCTGCTAAAGCCAGAGAATGGGC
B3: glm1 (dsDNA)
DNA 1: ATAGATGTTTTTATTAATTGGATAG
DNA 2: CTATCCAATTAATAAAAACATCTAT

Target: T1, His-SPA (Storage Protein Activator, bZIP) (UniProt A0A9R1IS55 1-409)
T1 sequence: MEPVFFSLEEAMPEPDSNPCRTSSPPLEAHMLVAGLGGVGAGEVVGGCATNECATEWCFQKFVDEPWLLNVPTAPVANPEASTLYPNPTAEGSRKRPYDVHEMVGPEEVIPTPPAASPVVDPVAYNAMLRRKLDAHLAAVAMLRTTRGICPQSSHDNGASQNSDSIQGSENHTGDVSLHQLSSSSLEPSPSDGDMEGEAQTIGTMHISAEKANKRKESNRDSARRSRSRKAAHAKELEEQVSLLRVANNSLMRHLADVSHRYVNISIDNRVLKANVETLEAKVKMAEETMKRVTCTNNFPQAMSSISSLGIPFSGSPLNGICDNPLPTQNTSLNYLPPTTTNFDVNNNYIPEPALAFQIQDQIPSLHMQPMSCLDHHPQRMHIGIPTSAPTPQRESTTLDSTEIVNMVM
Experiment: EMSA; 10 mM Tris pH 7.5, 100 mM KCl, 2 mM DTT, 2 mM EDTA, 10% glycerol, 0.05% nonyl phenoxypolyethoxylethanol, 0.5 mM PMSF, 100 ng/uL poly(dI.dC), 250 ng/uL fish sperm DNA; 20 fmol probe, 560 ng-4 ug protein in 20 uL; 30 min, room temperature; gel at 4 C
Conditions: protein: recombinant; tags: His tag (pDEST17); chain copies: 2; label: 3' biotin on each strand; blunt

Binder | binding result
B1 | binds
B2 | no binding
B3 | no binding
